B1: KCNK9 (parent)
chain: DVPDLQSVCSCTCYRSQDYGGRSV

Protein stability index data for 96 variants are collected here from the supplement of paper PMC10567573.
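Note: lentivirally expressed fusions sorted by FACS into six bins by GFP to DsRed ratio, PSI derived from sequencing read proportions per bin multiplied by bin number.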

Variants of B1 are the subject of the data set. Kind of data set: protein stability index of a GFP-peptide fusion (GPS, HEK-293T) (PSI 1-6); higher = more stable. The settings on record: c terminus: a fixed tail appended.
In the case of DVPDLQSVCSCTCYRSQDYGGVSV [R22V], the protein stability index amounted to 2.82.

On to DVPDLQSVCSCTCYRSQDYGGWSV [R22W], for which the protein stability index turned out to be 2.4.

In the case of DVPDLQSVCSCTCYRSQDYGGESV [R22E], the protein stability index is 3.3.

As for DVPDLQSVCSDTCYRSQDYGGRSV [C11D], the protein stability index came to 4.15.

On to DVPDLQSVCSITCYRSQDYGGRSV [C11I], for which the protein stability index was determined as 2.39.

As for DVPDLQSVCSETCYRSQDYGGRSV [C11E], the protein stability index is 4.65.

For DVPDLQSVCSSTCYRSQDYGGRSV [C11S], the protein stability index was 3.3.

As for DVPDLQSVASCTCYRSQDYGGRSV [C9A], the protein stability index came out at 2.7.

Regarding DVPDLQSVGSCTCYRSQDYGGRSV [C9G], the protein stability index came to 1.75.

For DVPDLQSVLSCTCYRSQDYGGRSV [C9L], the protein stability index came out at 2.16.

Turning to DVPDLQSVHSCTCYRSQDYGGRSV [C9H], the protein stability index stood at 1.71.

On to DVPDLQSVFSCTCYRSQDYGGRSV [C9F], for which the protein stability index worked out at 2.01.

As to DVPDLQSVCSCTCYRSQDYKGRSV [G20K], the protein stability index was 2.37.

In the case of DVPDLQSVCSCTCYRSQDYLGRSV [G20L], the protein stability index was found to be 1.67.

On to DVPDLQSVCSCTCYRSQDYNGRSV [G20N], for which the protein stability index came to 2.03.

For DVPDLQDVCSCTCYRSQDYGGRSV [S7D], the protein stability index was determined as 2.2.

For DVPDLQYVCSCTCYRSQDYGGRSV [S7Y], the protein stability index was 2.07.

For the variant DVPDQQSVCSCTCYRSQDYGGRSV [L5Q], the protein stability index stood at 2.38.

As for DVPDKQSVCSCTCYRSQDYGGRSV [L5K], the protein stability index was 1.9.

Take DVPDMQSVCSCTCYRSQDYGGRSV [L5M]: the protein stability index is 1.79.

With DVPDLQSVCSCTCYRIQDYGGRSV [S16I], the protein stability index was found to be 2.85.

In the case of DVPDLQSVCSCTCYRHQDYGGRSV [S16H], the protein stability index worked out at 1.8.

In the case of DVPDLQSVCSCTCYRMQDYGGRSV [S16M], the protein stability index is 2.21.

Regarding DVPDLQSVCSCTCYRAQDYGGRSV [S16A], the protein stability index came to 1.2.

For the variant DVPDLQSVCSCICYRSQDYGGRSV [T12I], the protein stability index turned out to be 1.57.

Turning to DVPDLQSVCSCECYRSQDYGGRSV [T12E], the protein stability index was 2.4.

For DVPDLQSVCSCTCYRSQFYGGRSV [D18F], the protein stability index amounted to 1.2.

In the case of DVPDLQSVCSCTCYRSQKYGGRSV [D18K], the protein stability index was 1.65.

For DVPDLQSVCSCTCYRSQDYGGRHV [S23H], the protein stability index was 1.67.

Consider DVPDLQSVCSCTCYRSQDYGGRNV [S23N], for which the protein stability index turned out to be 2.14.

Consider DVPDLQSVCSCTCYRSQDYGGRRV [S23R], for which the protein stability index came to 1.48.

On to DVPDLQSVCSCTCYRSQDYGGRVV [S23V], for which the protein stability index was 1.32.

With DVPDLQSVCSCTCYRSQDYGGRFV [S23F], the protein stability index worked out at 2.11.

In the case of DVPILQSVCSCTCYRSQDYGGRSV [D4I], the protein stability index worked out at 2.81.

As to DVPNLQSVCSCTCYRSQDYGGRSV [D4N], the protein stability index was found to be 2.07.

Regarding IVPDLQSVCSCTCYRSQDYGGRSV [D1I], the protein stability index amounted to 1.33.

QVPDLQSVCSCTCYRSQDYGGRSV [D1Q]: the protein stability index came to 2.87.

In the case of PVPDLQSVCSCTCYRSQDYGGRSV [D1P], the protein stability index was 2.33.

For DVPDLQSVCSCTCYRSTDYGGRSV [Q17T], the protein stability index stood at 2.39.

For the variant DVPDLQSVCSCTCYRSDDYGGRSV [Q17D], the protein stability index was 2.15.

Turning to DVPDLQSVCSCTCYRSKDYGGRSV [Q17K], the protein stability index was 1.86.

In the case of DVPDLQSVCSCTCYRSPDYGGRSV [Q17P], the protein stability index worked out at 1.27.

Consider DVPDLQSVCSCTCYRSEDYGGRSV [Q17E], for which the protein stability index was 2.07.

For the variant DVPDLQSVCSCTCYRSWDYGGRSV [Q17W], the protein stability index worked out at 2.44.

For DVWDLQSVCSCTCYRSQDYGGRSV [P3W], the protein stability index worked out at 1.33.

DVEDLQSVCSCTCYRSQDYGGRSV [P3E]: the protein stability index was 2.

With DVMDLQSVCSCTCYRSQDYGGRSV [P3M], the protein stability index was 2.11.

For DVQDLQSVCSCTCYRSQDYGGRSV [P3Q], the protein stability index amounted to 1.93.

With DVADLQSVCSCTCYRSQDYGGRSV [P3A], the protein stability index amounted to 1.34.

For the variant DVGDLQSVCSCTCYRSQDYGGRSV [P3G], the protein stability index stood at 1.41.

For DVTDLQSVCSCTCYRSQDYGGRSV [P3T], the protein stability index came to 1.73.

For the variant DVPDLQSVCSCTCYKSQDYGGRSV [R15K], the protein stability index was determined as 2.08.

Turning to DVPDLQSVCSCTCYASQDYGGRSV [R15A], the protein stability index is 2.07.

Consider DVPDLQSVCSCTCYESQDYGGRSV [R15E], for which the protein stability index was 2.52.

For the variant DVPDLQSVCSCTCYHSQDYGGRSV [R15H], the protein stability index was determined as 2.68.

For DVPDLQSVCSCTCYRSQDYGLRSV [G21L], the protein stability index came to 1.

As for DVPDLQSVCSCTCYRSQDYGARSV [G21A], the protein stability index came out at 1.85.

For DVPDLQSVCSCTCYRSQDYGFRSV [G21F], the protein stability index was 1.81.

Consider DVPDLQSVCSCTCYRSQDYGHRSV [G21H], for which the protein stability index stood at 1.9.

With DVPDLQSVCSCTCYRSQDYGSRSV [G21S], the protein stability index was 3.41.

On to DVPDLQSVCSCTCYRSQDYGKRSV [G21K], for which the protein stability index is 1.9.

As for DVPDLQSVCSCTCHRSQDYGGRSV [Y14H], the protein stability index was 2.55.

With DVPDLQSVCSCTCFRSQDYGGRSV [Y14F], the protein stability index was found to be 2.1.

DVPDLQSVCSCTCDRSQDYGGRSV [Y14D]: the protein stability index turned out to be 1.92.

Consider DVPDLQSVCSCTCYRSQDYGGRSA [V24A], for which the protein stability index was found to be 1.68.

DVPDLQSVCSCTCYRSQDDGGRSV [Y19D]: the protein stability index was 2.41.

Turning to DVPDLQSVCSCTCYRSQDIGGRSV [Y19I], the protein stability index turned out to be 2.18.

Regarding DVPDLQSVCSCTCYRSQDFGGRSV [Y19F], the protein stability index came to 2.25.

As to DVPDLQSVCSCTCYRSQDQGGRSV [Y19Q], the protein stability index was 2.44.

As for DVPDLQSVCSCTCYRSQDPGGRSV [Y19P], the protein stability index is 1.86.

DVPDLQSVCTCTCYRSQDYGGRSV [S10T]: the protein stability index was 2.47.

As to DVPDLQSVCLCTCYRSQDYGGRSV [S10L], the protein stability index was 2.39.

Take DVPDLQSVCSCTNYRSQDYGGRSV [C13N]: the protein stability index came out at 2.53.

Turning to DVPDLQSVCSCTKYRSQDYGGRSV [C13K], the protein stability index was found to be 1.82.

For DVPDLQSVCSCTVYRSQDYGGRSV [C13V], the protein stability index amounted to 2.31.

On to DVPDLQSVCSCTLYRSQDYGGRSV [C13L], for which the protein stability index was 1.97.

With DVPDLQSVCSCTMYRSQDYGGRSV [C13M], the protein stability index came out at 1.73.

DYPDLQSVCSCTCYRSQDYGGRSV [V2Y]: the protein stability index came to 1.82.

On to DPPDLQSVCSCTCYRSQDYGGRSV [V2P], for which the protein stability index was found to be 1.55.

Consider DSPDLQSVCSCTCYRSQDYGGRSV [V2S], for which the protein stability index is 2.19.

Regarding DHPDLQSVCSCTCYRSQDYGGRSV [V2H], the protein stability index worked out at 1.67.

Turning to DDPDLQSVCSCTCYRSQDYGGRSV [V2D], the protein stability index came to 1.78.

For DAPDLQSVCSCTCYRSQDYGGRSV [V2A], the protein stability index worked out at 1.84.

Regarding DVPDLPSVCSCTCYRSQDYGGRSV [Q6P], the protein stability index is 1.5.

Regarding DVPDLWSVCSCTCYRSQDYGGRSV [Q6W], the protein stability index came to 2.57.

DVPDLLSVCSCTCYRSQDYGGRSV [Q6L]: the protein stability index was 3.01.

As for DVPDLTSVCSCTCYRSQDYGGRSV [Q6T], the protein stability index was found to be 1.85.

DVPDLHSVCSCTCYRSQDYGGRSV [Q6H]: the protein stability index amounted to 1.88.

For DVPDLSSVCSCTCYRSQDYGGRSV [Q6S], the protein stability index was determined as 1.59.

For the variant DVPDLISVCSCTCYRSQDYGGRSV [Q6I], the protein stability index came out at 2.39.

As to DVPDLQSHCSCTCYRSQDYGGRSV [V8H], the protein stability index came to 1.57.

Take DVPDLQSFCSCTCYRSQDYGGRSV [V8F]: the protein stability index was 2.22.

For DVPDLQSNCSCTCYRSQDYGGRSV [V8N], the protein stability index is 2.5.

Regarding DVPDLQSPCSCTCYRSQDYGGRSV [V8P], the protein stability index was determined as 1.77.

As for DVPDLQSWCSCTCYRSQDYGGRSV [V8W], the protein stability index was found to be 1.29.

DVPDLQSECSCTCYRSQDYGGRSV [V8E]: the protein stability index amounted to 2.24.
